Results published in patent US20220073643A1 (NANJING GENSCRIPT BIOTECH, published 2022).

What was measured:
[1] = molecular target: T1, human Claudin18.2 (human); assay: FACS, Claudin18.2-HEK293 cells
T1 construct: also called CLDN18.2
Procedure: The binding of chimeric antibodies to Claudin18.2 expressed on HEK293 cells was determine by FACS analysis. Briefly, HEK293 cells expressing human Claudin18.2 as prepared in the foregoing Example were harvested and incubated with anti-Claudin18.2 mAbs at 4° C. for 40 min, followed by fluorophore (iFluor 647)-labeled goat […] IgG (H+L) secondary antibodies at 4° C. for 0.5 hour. The samples were then analyzed by flow cytometry.
After initial screening of cell binding with transfected supernatants, the binding pattern of chimeric and up to 3 humanized antibodies on Claudin18.2 expressed on HEK293 cells were plotted with antibody in 3× serial dilutions, starting concentration of 45 μg/ml, following the protocol described in Example 3.

[2] = molecular target: T1, human Claudin18.2; assay: cell ELISA, Claudin18.2-expressing HEK293T cells
Summary of the method: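 Claudin18.2-expressing HEK293T stable cells (1.5×10⁶ cells/ml in 5% skim milk/PBS blocking buffer) were incubated 1 h at room temperature in plates pre-blocked overnight at 4° C. EC₅₀ was derived by four-parameter curve fit.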

Binder | EC50 [1] | Span [1] | EC50 [2]
humanized 207F8G5-VH1.1 + VL1.1 (antibody, human IgG1, kappa, V domains shown, humanized, human IgG1/kappa constant regions) VH: QVQLVQSGAEVKKPGASVKVSCKASGFTFTSYNIHWVKQAPGQGLEWMGYISPGNGGSNYNLKFKDRVTMTSDTSISTAYMELSRLRSDDTAVYFCATGRGFAYWGQGTLVTVSS VL: DIVMTQSPDSLAVSPGERATMSCKSSQSLFNSGNQKNYLIWYQQKPGQPPKLLIYRASTRDSGVPDRFSGSGSGTDFTLTISSLQAEDVAVYYCQNDYSYPLTFGGGTKLEIKR | 0.168 µg/mL | 14000 | 
humanized 232C5E3-VL1.1 + VH1 (antibody, human IgG1, kappa, V domains shown, humanized, human IgG1/kappa constant regions) VH: QVQLVQSGAEVKKPGASVKVSCKASGYTFTSHNIHWVRQAPGQRLEWMGYIYPGNGGTNYNQKFKARVTITRDTSASTAYMELSSLRSEDTAVYYCARDYYGNSFAYWGQGTLVTVSS VL: DIVMTQSPDSLAVSLGERATMSCKSSQSLLNSGNQKNYLTWYQQKPGQPPKLLIYWASTRESGVPDRFSGSGSGTDFTLTISSLQAEDVAVYYCQNGYRFPFTFGQGTKLEIKR | 0.304 µg/mL | 58000 | 
humanized 246B5F2-VH1.1 + VL1 (antibody, human IgG1, kappa, V domains shown, humanized, human IgG1/kappa constant regions) VH: EVQLLESGGGLVQPGGSLRLSCAASEFTFSNYAMSWVRQAPGKRLEWVATISSGRSSTYYPDSVKGRFTISRDNSKNTLYLQMNSLRAEDTAVYYCAGLGRGNAMEYWGQGTLVTVSS VL: DIVMTQSPDSLAVSLGERATINCKSSQSLLNSGNQKNYLTWYQQKPGQPPKLLIYWASTRESGVPDRFSGSGSGTDFTLTISSLQAEDVAVYYCQNAYSYPFTFGGGTKLEIKR | 0.104 µg/mL | 10900 | 
humanized 232C5E3-VL1.1 + VH1.1 (antibody, human IgG1, kappa, V domains shown, humanized, human IgG1/kappa constant regions) VH: QVQLVQSGAEVKKPGASVKVSCKASGYTFTSHNIHWVRQAPGQRLEWIGYIYPGNGGTNYNQKFKARATITADTSASTAYMELSSLRSEDTAVYFCARDYYGNSFAYWGQGTLVTVSS VL: DIVMTQSPDSLAVSLGERATMSCKSSQSLLNSGNQKNYLTWYQQKPGQPPKLLIYWASTRESGVPDRFSGSGSGTDFTLTISSLQAEDVAVYYCQNGYRFPFTFGQGTKLEIKR | 0.224 µg/mL | 54900 | 
humanized 207F8G5-VH1.7 + VL1 (antibody, human IgG1, kappa, V domains shown, humanized, human IgG1/kappa constant regions) VH: QVQLVQSGAEVKKPGASVKVSCKASGFTFTSYNIHWVKQAPGQGLEWMGYISPGNGGSNYNLKFKDRVTLTSDTSISTAYMELSRLRSDDTAVYYCATGRGFAYWGQGTLVTVSS VL: DIVMTQSPDSLAVSLGERATINCKSSQSLFNSGNQKNYLIWYQQKPGQPPKLLIYRASTRDSGVPDRFSGSGSGTDFTLTISSLQAEDVAVYYCQNDYSYPLTFGGGTKLEIKR | 0.145 µg/mL | 13800 | 
humanized 246B5F2-VH1.1 + VL1.1 (antibody, human IgG1, kappa, V domains shown, humanized, human IgG1/kappa constant regions) VH: EVQLLESGGGLVQPGGSLRLSCAASEFTFSNYAMSWVRQAPGKRLEWVATISSGRSSTYYPDSVKGRFTISRDNSKNTLYLQMNSLRAEDTAVYYCAGLGRGNAMEYWGQGTLVTVSS VL: DIVMTQSPDSLAVSLGERATISCKSSQSLLNSGNQKNYLTWYQQKPGQPPKLLIYWASTRESGVPDRFTGSGSGTDFTLTISSLQAEDVAVYYCQNAYSYPFTFGGGTKLEIKR | 0.283 µg/mL | 14700 | 
humanized 232C5E3-VL1.1 + VH1.2 (antibody, human IgG1, kappa, V domains shown, humanized, human IgG1/kappa constant regions) VH: QVQLVQSGAEVKKPGASVKVSCKASGYTFTSHNIHWIKQAPGQRLEWMGYIYPGNGGTNYNQKFKARVTITADTSASTAYMELSSLRSEDTAVYFCARDYYGNSFAYWGQGTLVTVSS VL: DIVMTQSPDSLAVSLGERATMSCKSSQSLLNSGNQKNYLTWYQQKPGQPPKLLIYWASTRESGVPDRFSGSGSGTDFTLTISSLQAEDVAVYYCQNGYRFPFTFGQGTKLEIKR | 0.212 µg/mL | 57900 | 
humanized 207F8G5-VH1.3 + VL1.1 (antibody, human IgG1, kappa, V domains shown, humanized, human IgG1/kappa constant regions) VH: QVQLVQSGAEVKKPGASVKVSCKASGFTFTSYNIHWVRQAPGQGLEWIGYISPGNGGSNYNLKFKDRATMTSDTSISTAYMELSRLRSDDTAVYFCATGRGFAYWGQGTLVTVSS VL: DIVMTQSPDSLAVSPGERATMSCKSSQSLFNSGNQKNYLIWYQQKPGQPPKLLIYRASTRDSGVPDRFSGSGSGTDFTLTISSLQAEDVAVYYCQNDYSYPLTFGGGTKLEIKR | 0.143 µg/mL | 13800 | 
humanized 237D2A4-VH1.2 + VL1 (antibody, human IgG1, kappa, V domains shown, humanized, human IgG1/kappa constant regions) VH: QVQLQESGPGLVKPSETLSLTCTVSGFSLTSYGVSWIRQPPGKGLEWIGVIWGDGSTNYHSTLISRVTISKDTSKNQVFLKLSSVTAADTAVYYCAKAGRGNALDYWGQGTLVTVSS VL: DIVMTQSPDSLAVSLGERATINCKSSQSLLNSGNQKNYLTWYQQKPGQPPKLLIYWASTRESGVPDRFSGSGSGTDFTLTISSLQAEDVAVYYCQNDYSFPLTFGGGTKLEIKR | 0.261 µg/mL | 15700 | 
humanized 246B5F2-VH1 + VL1 (antibody, human IgG1, kappa, V domains shown, humanized, human IgG1/kappa constant regions) VH: EVQLLESGGGLVQPGGSLRLSCAASEFTFSNYAMSWVRQAPGKGLEWVSTISSGRSSTYYPDSVKGRFTISRDNSKNTLYLQMNSLRAEDTAVYYCAKLGRGNAMEYWGQGTLVTVSS VL: DIVMTQSPDSLAVSLGERATINCKSSQSLLNSGNQKNYLTWYQQKPGQPPKLLIYWASTRESGVPDRFSGSGSGTDFTLTISSLQAEDVAVYYCQNAYSYPFTFGGGTKLEIKR | 0.16 µg/mL | 14200 | 
humanized 370E2B12C3-VH3 + VL1 (antibody, human IgG1, kappa, V domains shown, humanized, human IgG1/kappa constant regions) VH: QVQLVESGGGVVQPGRSLRLSCAASGFSLTTYGVHWVRQAPGKGLEWVAVIWAGGSTNYNSALMSRFTISRDNSKNTLYLQMNSLRAEDTAVYYCARAAYYGNGLDYWGQGTMVTVSS VL: DIVMTQSPDSLAVSLGERATINCKSSQTLLNSGNQKNYLTWYQQKPGQPPKLLIYWASTGESGVPDRFSGSGSGTDFTLTISSLQAEDVAVYYCQNAYFYPFTFGGGTKLEIKR | 0.826 µg/mL | 4650 | 
humanized 370E2B12C3-VH3 + VL2 (antibody, human IgG1, kappa, V domains shown, humanized, human IgG1/kappa constant regions) VH: QVQLVESGGGVVQPGRSLRLSCAASGFSLTTYGVHWVRQAPGKGLEWVAVIWAGGSTNYNSALMSRFTISRDNSKNTLYLQMNSLRAEDTAVYYCARAAYYGNGLDYWGQGTMVTVSS VL: DIVMTQSPLSLPVTPGEPASISCKSSQTLLNSGNQKNYLTWYLQKPGQSPQLLIYWASTGESGVPDRFSGSGSGTDFTLKISRVEAEDVGVYYCQNAYFYPFTFGGGTKVEIKR | 0.794 µg/mL | 4300 | 
humanized 370E2B12C3-VH3 + VL3 (antibody, human IgG1, kappa, V domains shown, humanized, human IgG1/kappa constant regions) VH: QVQLVESGGGVVQPGRSLRLSCAASGFSLTTYGVHWVRQAPGKGLEWVAVIWAGGSTNYNSALMSRFTISRDNSKNTLYLQMNSLRAEDTAVYYCARAAYYGNGLDYWGQGTMVTVSS VL: DVVMTQSPLSLPVTLGQPASISCKSSQTLLNSGNQKNYLTWFQQRPGQSPRRLIYWASTGESGVPDRFSGSGSGTDFTLKISRVEAEDVGVYYCQNAYFYPFTFGGGTKVEIKR | 1.17 µg/mL | 5520 | 
423C10E1 (antibody, V domains shown, mouse hybridoma mAb) VH: DVQLVESGGGLVQPGGSRKLSCVTSGFTFSSFGMHWVRQAPEKGLEWVAFISGGGSPIFYADSVKGRFTVSRDNPKNTLFLQMTGLRSEDTAMYFCARFYFGNSFAYWGQGTLVTVSA VL: DIVMTQSPSSLTVTAGEKVTMNCRSSQSLFNSGNQKNYLTWYQQKPGQSPKLLIYWASTRESGVPVRFTGSGSGTDFTLTISSVQAEDLAVYYCQTSFNYPLTFGPGTKLELK |  |  | 2.46 nM
420H7E6 (antibody, V domains shown, mouse hybridoma mAb) VH: DVQLVESGGGLVQPGGSRKLSCVTSGFTFSSFGMHWIRQAPEKGLEWVAFISGGGSPIFYADSVKGRFTVSRDNPKNTLFLQMTGLRSEDTAMYFCARFYFGNSFAYWGQGTLVTVSA VL: DIVMAQSPSSLTVTAGEKVTMNCRSSQSLFNSGNQKNYLTWYQQKPGQPPKLLIYWASTRESGVPVRFTGSGSGTDFTLTISSVQAEDLAVYYCQTGFSYPLTFGPGTKLELK |  |  | 2.94 nM
430A11H9 (antibody, V domains shown, mouse hybridoma mAb) VH: DVKLVESGGGLVKPGGSLKLSCAASGFTFSSYTMSWVRQTPEKRLEWVATISSGGSYTYYPDSVKGRFTISRDNAKNTLYLQMSSLKSEDTAMYYCTRDPGYFAYWGQGTLVTVSA VL: DIQMTQSPASLSASVGETVTITCRASENIYSYLAWYQQKQGKSPQLLVYNAKTLAEGVPSRFSGSGSGTQFSLKINSLQPEDFGSYYCQHHYGTPYTFGGGTKLEIK |  |  | ~1.7 nM
418B8B10 (antibody, V domains shown, mouse hybridoma mAb) VH: DVQLVESGGGLVQPGGSRKLSCAASGFTFSSFGMHWVRQAPEKGLEWVAYISSGSSPIYYTDTVKGRFTISRDNPKNTLFLQMTSLRSEDTAMYFCARFYYGNSFDHWGQGTLVTVSA VL: DIVMTQSPSSLTVTAGEKVSMSCKSSQSLFNRGNQKSYLTWYQQRPGQPPKLLIYWASTRESGVPDRFTGSGSGTDFTLTISSVQAEDLAVYYCQNNYIYPLTFGAGTKLELK |  |  | 3.17 nM
420H3H9 (antibody, V domains shown, mouse hybridoma mAb) VH: DVQLVESGGGLVQPGGSRKLSCAASGFTFSSFGMHWVRQAPEKGLEWVAYISSGSSTIYYAHSVKGRFTISRDNPKNTLFLQMTSLGSEDTAMYYCARFYYGNSFAYWGQGTLVTVSA VL: DIVMTQSPSSLTVTAGEKVTLSCKSSQSLLNSGNQKNYLTWYQQKPGQPPKMLIYWASTRESGVPDRFTGSGSGTDFTLTISSVQAEDLADYYCQNAYTYPLTFGAGTRLELK |  |  | 20.7 nM
429H6C5 (antibody, V domains shown, mouse hybridoma mAb) VH: DVQLVESGGGLVQPGGSRKLSCAASGFTFSSFGMHWVRQAPEKELEWVAYISSGSSTIYYAHTVKGRFTISRDNPKNTLFLRMTSLGSEDTAMYYCVRFYYGNSFVNWGQGTLVTVSA VL: DIVMTQSPSSLTATAGEKVTMSCKSSQSLLNSGNQKNYLTWYQQKPGQPPKMLIYWASTRESGVPDRFAGSGSGTDFTLTISSVQAEDLAVYYCQNAYIYPLTFGAGTRLELK |  |  | 13.2 nM
370E2B12C3 (antibody, V domains shown, mouse hybridoma mAb) VH: QVQLKESGPGLVAPSQSLSITCTVSGFSLTTYGVHWVRQPPGKGLEWLGVIWAGGSTNYNSALMSRVSINKDNSKSQVFIKMNSLQADDTALYYCARAAYYGNGLDYWGQGTTLTVSS VL: DIVMTQSPSSLTVTAGEKVTMSCKSSQTLLNSGNQKNYLTWYQQKPGQPPKLLIYWASTGESGVPDRFTGSGSGTDFTLTISSVQAEDLAVYFCQNAYFYPFTFGGGTKLEIK |  |  | 0.522 nM
